Test results: patent US20190276542A1 (QILU PUGET SOUND BIOTHERAPEUTICS, published 2019)
Positions count from the first letter of the chain named.

B1: anti-hPD1 antibody #1 (antibody, V domains shown)
VH: QVQLVQSGAEVKKPGASVKVSCKASGYTFTNYWIHWVRQAPGQGLEWMGEIDPYDSYTNYNQKFKGRVTMTVDKSTSTVYMELSSLRSEDTAVYYCARPGFTYGGMDFWGQGTLVTVSS
VL: DIQMTQSPSSLSASVGDRVTITCKSSQSLFNSGNQKNYLAWYQQKPGKVPKLLIYGASTRDSGVPYRFSGSGSGTDFTLTISSLQPEDVATYYCQNDHYYPYTFGGGTKVEIKR
notes: also called Anti-hPD1 #1; Anti-PD1 #1
B2: altered anti-hPD1 antibody #1 (antibody, human IgG4 S228P, kappa, V domains shown)
VH: B1 VH with G44D, Q111R
VL: B1 VL with V49D, G106R
B3: anti-hPD1 antibody #3 (antibody, human IgG4, V domains shown)
VH: B1 VH with G26S, I34M, V72I, K74T, R87T
VL: DIQMTQSPSSLSASVGDRVTITCKSSQSLFNSGNQKNYLAWYQQKPGKVPKLLIYGASTRESGVPARFSGSGSGTDFTLTISSLQAEDVATYYCQNDHYYPYTFGGGTKVEIK
notes: also called Anti-hPD1 #3; Anti-PD1 #3
B4: anti-hPD1 antibody #10 (antibody, human IgG4, V domains shown)
VH: B1 VH with N31S, I34M, Y54F, V72I, S77N, R87G, F101Y
VL: DIVMTQSPDSLAVSLGERATINCRSSQSLFISGNQKNYLAWYQQKPGQPPKLLIYGASTRDSGVPDRFSGSGSGTDFTLTISSLQAEDVAVYYCQNNHYYPYTFGGGTKVEIK
notes: also called Anti-hPD1 #10; Anti-PD1 #10
B5: anti-hPD1 antibody #7 (antibody, human IgG4, V domains shown)
VH: B1 VH with V72I, S77N, F101L
VL: B4 VL with D61E
notes: also called Anti-hPD1 #7; Anti-PD1 #7
B6: anti-hPD1 antibody #4 (antibody, human IgG4, V domains shown)
VH: B1 VH with I34M, Y54F, V72R, K74T, R87T, F101Y
VL: B3 VL with F30L, V49P, E61D, A66S, A86P
notes: also called Anti-hPD1 #4; Anti-PD1 #4
B7: anti-hCTLA4 antibody 10D4 (antibody, human IgG1, V domains shown)
VH: QVQLVESGGGVVEPGRSLRLSCTASGFTFSSYGMHWVRQAPGKGLEWVAVIWYHPSKKDYADSAKGRFTISRDNSKNTLYLQMNSLRAEDTAVYYCARAGLLGYFDYWGQGTLVTVSS
VL: EIVLTQSPGTLSLSPGERATLSCRASQSVTSYLAWYQQKPGQAPRPLIYGVSSRATGIPDRFSGSGSGTDFTLTISRLEPEDFAVYYCQQYGRYPFTFGPGTKVDIK
notes: unaltered form; also called Anti-CTLA4 10D4; anti-hCTLA4 #10D4
B8: anti-hCTLA4 antibody 11F4 (antibody, human IgG1, V domains shown)
VH: B7 VH with T23A, H54K, K57E, A99G
VL: B7 VL with V29I, T30N
notes: unaltered form; also called Anti-CTLA4 11F4; anti-hCTLA4 #11F4
B9: altered anti-hCTLA4 10D4 (antibody, human IgG1, kappa, V domains shown)
VH: B7 VH with G44R, Q110D
VL: EIVLTQSPGTLSLSPGERATLSCRASQSVTSYLAWYQQKPGQRPRPLIYGVSSRATGIPDRFSGSGSGTDFTLTISRLEPEDFAVYYCQQYGRYPFTFGDGTKVDIKR
B10: altered anti-hCTLA4 11F4 (antibody, human IgG1, kappa, V domains shown)
VH: B7 VH with T23A, G44R, H54K, K57E, A99G, Q110D
VL: B9 VL with V29I, T30N

biological target: T1, human PD1 expressed on a cell surface (human, UniProt Q15116 25-288); test: cell-based or functional assay
T1 sequence (Q15116 25-288): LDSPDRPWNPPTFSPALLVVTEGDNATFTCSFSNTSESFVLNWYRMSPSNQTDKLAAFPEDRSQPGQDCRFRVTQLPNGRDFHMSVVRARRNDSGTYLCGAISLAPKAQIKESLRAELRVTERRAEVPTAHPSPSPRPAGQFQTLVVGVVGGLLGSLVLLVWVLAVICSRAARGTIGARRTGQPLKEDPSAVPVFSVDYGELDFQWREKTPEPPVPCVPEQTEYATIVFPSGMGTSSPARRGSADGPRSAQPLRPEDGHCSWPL

Binder	IC50, luciferase reporter assay (Jurkat cells with hPD1 plus CHO cells with hPDL1) [nM]	IC50, luciferase reporter assay (Jurkat cells with hPD1 plus CHO cells with hPDL1); tested as the mixture Altered anti-CTLA4 11F4 and altered anti-PD1 #1 made in one cell line [nM]
B1	2.5	
B2	2.67	3.34

biological target: T1, human PD1 expressed on a cell surface; test: cell-based or functional assay; remark: another data set of the same source

Binder	IC50, luciferase reporter assay (Jurkat cells with hPD1 plus CHO cells with hPDL1) [nM]	IC50, luciferase reporter assay (Jurkat cells with hPD1 plus CHO cells with hPDL1); tested as the mixture Altered anti-CTLA4 10D4 and altered anti-PD1 #1 made in one cell line [nM]
B1	2.49	
B2	2.65	3.8

biological target: T2, soluble, biotinylated PD1 protein containing only the extracellular region (human, UniProt Q15116 25-170, biotinylated in vivo (site not stated)); test: …; inhibition of GST-hPDL1 binding to biotinylated hPD1
T2 construct: extracellular domain; also called biotinylated hPD1
T2 sequence (Q15116 25-170): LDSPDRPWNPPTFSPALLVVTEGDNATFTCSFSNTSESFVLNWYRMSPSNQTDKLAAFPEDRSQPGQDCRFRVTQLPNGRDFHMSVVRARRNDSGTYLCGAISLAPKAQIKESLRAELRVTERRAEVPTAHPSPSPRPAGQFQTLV
Procedure: Finally, 10 μL of streptavidin donor beads (which can bind the biotinylated hPD1) were added to bring the final concentration of donor beads to 16 μg/mL, and the plates were incubated in the dark at RT for one hour. […] An antibody that inhibits this interaction or binding will decrease the signal, since the inhibiting antibody prevents physical proximity of the donor and acceptor beads.
Plates were read in an EnVision 2103 Multilabel Reader (PerkinElmer) using illumination at a wavelength of 680 nm and reading emission at a wavelength of about […]. The results were plotted and IC₅₀ values were calculated using GraphPad Prism software.

Binder	IC50 [nM]
B1	0.197
B3	0.305
B4	0.279
B5	0.307
B6	0.314

biological target: T3, human CTLA4 expressed on Jurkat T cells (human, UniProt P16410 36-223); test: flow cytometry on Jurkat T cells expressing hCTLA4
T3 construct: whole, on cells; also called hCTLA4; cell surface-expressed hCTLA4
T3 sequence (P16410 36-223): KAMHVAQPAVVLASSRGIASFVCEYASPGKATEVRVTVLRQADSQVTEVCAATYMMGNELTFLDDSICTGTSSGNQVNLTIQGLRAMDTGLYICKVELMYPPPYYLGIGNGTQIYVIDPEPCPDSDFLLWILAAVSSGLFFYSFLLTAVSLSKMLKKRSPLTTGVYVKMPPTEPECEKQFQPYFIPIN
Description: After washing, the surface-bound anti-hCTLA4 antibodies were detected with a polyclonal anti-hlgG (Fc-specific) antibody labeled with fluorescein isothiocyanate (FITC)(anti-hlgG-FITC). Binding of anti-hCTLA4 antibodies were detected by flow cytometric analysis. The results were reported a geometric mean fluorescence intensity (MFI) using FlowJo software (FLOWJO, L.L.C., Ashland, Oreg., USA).

Binder	EC50 [nM]
B7	0.085
B8	0.158

biological target: T4, CTLA4-ECD_Fc, soluble hCTLA4 comprising the extracellular domain of hCTLA4 fused to an Fc fragment (human, UniProt P16410 36-161); test: flow cytometry; inhibition of CTLA4-ECD_Fc binding to Raji cells (hB7-1/hB7-2)
T4 construct: extracellular domain; not shown: Fc fragment
T4 sequence (P16410 36-161): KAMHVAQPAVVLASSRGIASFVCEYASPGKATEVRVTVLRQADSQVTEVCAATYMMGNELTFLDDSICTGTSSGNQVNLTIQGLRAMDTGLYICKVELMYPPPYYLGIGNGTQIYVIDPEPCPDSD
Procedure: In a first assay, inhibition of hCTLA4 binding to hB7-1 and hB7-2 expressed on the surface of Raji cells was assessed. Raji cells, which are human cells, express high levels of hB7-1 and hB7-2. […] After 30 minutes, 1×10⁵ Raji cells were added to each well and incubated for another 30 minutes. […] IC₅₀'s were calculated using GraphPad Prism software (GraphPad, Inc., La Jolla, Calif., USA).

Binder	IC50 [nM]
B7	3.3
B8	7.5

biological target: T5, extracellular domain of a recombinant cynomolgus (rcyno) PD1 (cynomolgus monkey, UniProt B0LAJ3 25-170); test: SPR (Biacore 3000), antibody captured by anti-human IgG, PD1 as analyte
T5 construct: also called recombinant cynomolgus PD1
T5 sequence (B0LAJ3 entry or part of it limits assumed): as the sequence (Q15116 25-170) above, with D2E, P10A, V19L, T35A, Q75R, T144A counted along it
Procedure: (§1) Biosensor analysis was conducted at 25° C. in an HBS-EP buffer (10 mM HEPES, 150 mM NaCl, 3 mM EDTA, 0.005% polysorbate 20, 0.1% bovine serum albumin, pH 7.4) using a Biacore 3000 optical biosensor equipped with a CM5 sensor chip according to the manufacturer's general protocol. The auto sampler was maintained at ambient temperature. […] About 8000 resonance units (RU) of this antibody was immobilized on these chips. Flow cell 4 was used to analyze captured anti-hPD1 antibodies (about 100 to 200 RU were captured on flow cell 4), while flow cell 3 was used as the reference flow cell. Both analytes, recombinant human PD1 and recombinant cynomolgus PD1, were prepared in five concentrations for each antibody tested. The analyte concentrations tested ranged from 1.2 to 300 nM. All analyte dilutions were prepared in HPS-EP buffer. Each of the five analyte sample concentrations were run in duplicate and in a mixed order, as a means of assessing the reproducibility of binding and mitigating systematic bias to the order of injection. Multiple blank (running buffer) injections also were run and used to assess and subtract system artifacts. The association phase and dissociation phase for all analyte concentrations were monitored for 300 seconds and 1500 seconds, respectively, at a flow rate of 50 μL/min. Between antibody samples the surface of the flow cell was regenerated with 10 mM glycine, pH 1.5 for 30 seconds at a flow rate of 50 μL/min.
(§2) The data was aligned, double referenced, and fit using SCRUBBER 2™ software (BioLogic Software, Pty, Australia), which is a Surface Plasmon Resonance (SPR) data processing and non-linear least squares regression fitting program.

Binder	Kd [nM]	koff [s⁻¹]	kon [M⁻¹ s⁻¹]
B1	5.06	0.000597	118000
B5	0.4	5.79e-05	145000

biological target: T6, recombinant human (rhu) PD1 (extracellular domain only) (human, UniProt Q15116 25-170); test: as above
T6 construct: extracellular domain; also called recombinant human PD1
T6 sequence (Q15116 25-170): as the sequence (Q15116 25-170) above
Procedure: as §1, §2

Binder	Kd [nM]	koff [s⁻¹]	kon [M⁻¹ s⁻¹]
B1	2.18	0.000133	60900
B3	5.16	0.000348	67400
B4	0.917	7.15e-05	78000
B5	0.297	3.54e-05	119000
B6	4.62	0.000279	60400

biological target: T3, human CTLA4 expressed on Jurkat T cells; test: cell-based or functional assay

Binder	IC50, luciferase (RLU), CTLA4 Dual-Cell Reporter Assay (Jurkat cells with hCTLA4 plus Raji cells) [nM]
B7	6.12
B8	7.39

biological target: T3, human CTLA4 expressed on Jurkat T cells; test: cell-based or functional assay; remark: another data set of the same source

Binder	IC50, luciferase reporter assay (Jurkat cells with CTLA4 plus Raji cells with hCD80 and hCD86) [nM]
B7	2.12
B9	3.75

biological target: T1, human PD1 expressed on a cell surface; test: cell-based or functional assay; remark: another data set of the same source

Binder	EC50 for CD4+ T cell proliferation (pM), mixed lymphocyte reaction [pM]	EC50 for CD8+ T cell proliferation (pM), mixed lymphocyte reaction [pM]	EC50 for IFN gamma production (pM), mixed lymphocyte reaction [pM]
B1	135	323	890
B3	365	3670	2220
B4	234	839	2210
B5	165	1520	1460
B6	391	534	1540

biological target: T1, human PD1 expressed on a cell surface; test: flow cytometry on OKT3-activated human T cells, CD4+ cells
Procedure: (§3) The following experiment tested whether the selected anti-hPD1 antibodies can bind to native PD1 expressed on the surface of activated T cells. Human PBMCs were pre-activated with OKT3 (an anti-CD3 antibody) at a concentration of 1 μg/ml. After three days, the PBMCs, which were mostly activated T cells at this time, were distributed into a 96 well microtiter plate using 0.1×10⁶ cells/well. […] The antibody bound to CD4⁺ T cells and CD4⁻ T cells (which were predominately CD8⁺ T cells) was detected using anti-hlgG-FITC and an anti-CD4 antibody labeled with allophycocyanin (anti-CD4-APC).
(§4) The samples were analyzed by flow cytometry (FACScalibur, BD), and binding was reported as an MFI. EC₅₀'s for binding were calculated using GraphPad Prism software.

Binder	EC50 [nM]
B1	0.918
B3	0.536
B4	1.07
B5	0.439
B6	0.672

biological target: T3, human CTLA4 expressed on Jurkat T cells; test: cell-based or functional assay; remark: another data set of the same source

Binder	IC50, luciferase reporter assay (Jurkat cells with CTLA4 plus Raji cells with hCD80 and hCD86) [nM]
B10	8.68
B8	4.8

biological target: T1, human PD1 expressed on a cell surface; test: cell-based or functional assay; remark: another data set of the same source

Binder	IC50, luciferase (RLU), PD1 dual cell reporter assay (Jurkat cells with hPD1 plus CHO-K1 cells with hPDL1) [nM]
B1	1.18
B3	2.37
B4	2.69
B5	2.39
B6	2.03

biological target: T1, human PD1 expressed on a cell surface; test: flow cytometry on OKT3-activated human T cells, CD4- cells
Procedure: as §3, §4

Binder	EC50 [nM]
B1	1.37
B3	0.69
B4	1.6
B5	0.569
B6	0.885
